Data published in publication PMC7978432.

Target: SARS-CoV-2 S2GΔHR2-5GS-1TD0 (SARS-CoV-2 | not stated) (UniProt P0DTC2)
Assay: native gel or EMSA

Work on “SARS-CoV-2 S2GΔHR2-5GS-1TD0 (from UniProt P0DTC2 14-1149)” yielded a stoichiometry N of 3.
